Laboratory results: patent US20080107600A1 (published 2008)

What was measured:
[1] = biological target: T1, DISC1/ΔBR-FLAG (deleted DISC1 that lacks the FEZ1-binding region, FLAG-tagged) (human, UniProt Q9NRI5 1-854); experiment: co-immunoprecipitation from transfected HEK293T cells, anti-FLAG / anti-HA
T1 sequence: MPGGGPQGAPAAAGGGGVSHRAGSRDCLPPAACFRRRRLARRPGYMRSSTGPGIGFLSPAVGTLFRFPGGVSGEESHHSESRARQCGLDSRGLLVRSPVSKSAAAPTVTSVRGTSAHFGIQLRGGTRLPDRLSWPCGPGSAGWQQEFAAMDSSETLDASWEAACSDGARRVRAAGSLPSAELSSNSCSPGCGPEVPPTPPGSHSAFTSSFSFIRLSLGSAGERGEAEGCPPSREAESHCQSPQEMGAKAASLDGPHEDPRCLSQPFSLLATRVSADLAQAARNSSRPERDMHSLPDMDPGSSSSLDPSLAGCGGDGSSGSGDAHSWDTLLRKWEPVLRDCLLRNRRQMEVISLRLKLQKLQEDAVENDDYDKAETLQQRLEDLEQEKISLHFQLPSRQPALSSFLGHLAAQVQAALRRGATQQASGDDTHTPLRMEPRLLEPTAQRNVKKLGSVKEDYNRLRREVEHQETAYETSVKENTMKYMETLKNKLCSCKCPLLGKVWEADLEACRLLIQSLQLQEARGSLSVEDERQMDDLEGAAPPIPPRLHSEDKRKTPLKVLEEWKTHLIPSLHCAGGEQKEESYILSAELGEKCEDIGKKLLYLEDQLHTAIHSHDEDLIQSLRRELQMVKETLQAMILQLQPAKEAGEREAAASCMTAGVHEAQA
Protocol: (a) Yeast two-hybrid assay to determine the binding regions of FEZ1 (upper panel) and DISC1 (lower panel). Open bars indicate the FEZ1 clone obtained by the screening and DISC1 clone used as bait. Closed bars indicate shorter fragments. […] The α-galactosidase activity of yeast transformants were assayed. +++ indicates strongly positive as a positive control. ++, + and − indicate moderately positive, weakly positive and negative, respectively. (b) DISC1 coimmunoprecipitated with FEZ1. HEK293T cells were transfected with DISC1-FLAG and FEZ1-HA, individually or in combination. […] Immunoprecipitates by anti-FLAG or anti-HA antibody were blotted with the reciprocal antibody.
HEK293T cells were transfected with DISC1-FLAG and FEZ1-HA, individually or in combination. FLAG-tagged truncated forms of DISC1 mentioned in the Plasmids section were also transfected in combination with FEZ-HA. Cells were lysed in TNE buffer/1% NP40. Prepared lysates were incubated with anti-FLAG antibody for 2 hours at 4° C. and then with Protein Gagarose (Invitrogen) for 1 hour at 4° C. The agarose beads were then washed five times with TNE buffer. Immunoprecipitates were subjected to SDS-PAGE and blotted with anti-HA antibody. Conversely, immunoprecipitates with anti-HA antibody were blotted with anti-FLAG antibody. PC12 cells were transfected with FEZ1-HA or mock and then lysed in TNE buffer/1% NP40. […]

[2] = biological target: T2, DISC1-FLAG (full-length human DISC1 with a C-terminal FLAG tag) (human, UniProt Q9NRI5 1-854); experiment: anti-FLAG immunoprecipitation from stable PC12 cells with or without NGF (50 ng/ml, 24 hours), blot with anti-FEZ1
T2 construct: also called FLAG-tagged DISC1
T2 sequence: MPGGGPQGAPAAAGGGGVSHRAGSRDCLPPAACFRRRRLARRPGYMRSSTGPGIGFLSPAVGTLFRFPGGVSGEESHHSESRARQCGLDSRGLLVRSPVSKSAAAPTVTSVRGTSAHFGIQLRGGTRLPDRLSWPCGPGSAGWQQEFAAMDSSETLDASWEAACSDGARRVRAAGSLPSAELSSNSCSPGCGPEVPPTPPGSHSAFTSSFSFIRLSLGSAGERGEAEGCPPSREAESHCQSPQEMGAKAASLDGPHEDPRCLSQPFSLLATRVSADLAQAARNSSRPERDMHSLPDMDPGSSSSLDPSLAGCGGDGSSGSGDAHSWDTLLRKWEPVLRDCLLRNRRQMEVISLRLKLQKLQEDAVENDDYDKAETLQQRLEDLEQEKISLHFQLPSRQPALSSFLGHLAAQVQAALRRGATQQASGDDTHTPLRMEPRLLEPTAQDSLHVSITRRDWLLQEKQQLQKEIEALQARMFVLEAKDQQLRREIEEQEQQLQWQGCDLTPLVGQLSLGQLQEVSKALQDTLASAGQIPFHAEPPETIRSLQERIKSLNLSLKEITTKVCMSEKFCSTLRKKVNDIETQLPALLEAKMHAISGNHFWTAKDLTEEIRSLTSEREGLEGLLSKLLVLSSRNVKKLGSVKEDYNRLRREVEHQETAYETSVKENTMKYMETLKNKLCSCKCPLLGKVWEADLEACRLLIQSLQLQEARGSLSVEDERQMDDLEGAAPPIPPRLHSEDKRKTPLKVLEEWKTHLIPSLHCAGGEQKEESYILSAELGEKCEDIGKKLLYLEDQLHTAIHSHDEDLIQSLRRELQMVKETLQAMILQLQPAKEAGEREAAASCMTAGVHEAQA
Protocol: Stably DISC1-FLAG-expressing PC12 cells were stimulated with a nerve growth factor (NGF) (50 ng/ml) for 24 hours and collected. Lysates were immunoprecipitated by anti-FLAG antibody. Immunoprecipitated complexes were subjected to SDS-PAGE and blotted with anti-FEZ1 antibody. […] Cells were either unstimulated (b, e, h, k) or stimulated with NGF (50 ng/ml) for 24 hours (c, f, 1,1), and 48 hours (d, g, J, m) and their neurites were subsequently microscopically observed.
HEK293T cells were transfected with DISC1-FLAG and FEZ1-HA, individually or in combination. FLAG-tagged truncated forms of DISC1 mentioned in the Plasmids section were also transfected in combination with FEZ-HA. Cells were lysed in TNE buffer/1% NP40. Prepared lysates were incubated with anti-FLAG antibody for 2 hours at 4° C. and then with Protein Gagarose (Invitrogen) for 1 hour at 4° C. The agarose beads were then washed five times with TNE buffer. Immunoprecipitates were subjected to SDS-PAGE and blotted with anti-HA antibody. Conversely, immunoprecipitates with anti-HA antibody were blotted with anti-FLAG antibody. PC12 cells were transfected with FEZ1-HA or mock and then lysed in TNE buffer/1% NP40. Lysates were immunoprecipitated by anti-HA antibody. Immunoprecipitates were subjected to SDS-PAGE and blotted with anti-actin antibody. […]

B1: FEZ1-HA (human FEZ1 with a C-terminal HA tag) (other, not shown: small tags and cut ends)
chain: MEAPLVSLDEEFEDLRPSCSEDPEEKPQCFYGSSPHHLEDPSLSELENFSSEIISFKSMEDLVNEFDEKLNVCFRNYNAKTENLAPVKNQLQIQEEEETLQDEEVWDALTDNYIPSLSEDWRDPNIEALNGNCSDTEIHEKEEEEFNEKSENDSGINEEPLLTADQVIEEIEEMMQNSPDPEEEEEVLEEEDGGETSSQADSVLLQEMQALTQTFNNNWSYEGLRHMSGSELTELLDQVEGAIRDFSEELVQQLARRDELEFEKEVKNSFITVLIEVQNKQKEQRELMKKRRKEKGLSLQSSRIEKGNQMPLKRFSMEGISNILQSGIRQTFGSSGTDKQYLNTVIPYEKKASPPSVEDLQMLTNILFAMKEDNEKVPTLLTDYILKVLCPT
notes: Expressed from pcDNA3.1(+) in HEK293T or PC12 cells; also called HA-tagged FEZ1; FEZ-HA
binding result [1]: no binding

B2: endogenous FEZ1 of PC12 cells (other, rat, UniProt P97577 1-393, looked up)
chain: MEAPLVSLDEEFEDIRPCCTEDPEEKPQSLYGTSPHHLEDPSLSELENFSSEIISFKSMEDLVNEFDEKLNVCFRNYNAKTENLAPVKNQLQIQEEEETLRDEEVWDALTDNYIPSLSEDWRDPNIEALNGNSSDTEIHEKEEEDEFIEKSENDSGINEEPLLTADQVIEEIEEMMQNSPDPEEEVEVLEEEDGGEISSQADSVLLQEMQALTQTFNNNWSYEGLRHMSGSELTELLDQVEGAIRDFSEELVHQLARRDELEFEKEVKNSFITVLIEVQNKQKEQRELMKKRRKEKGLSLQSSRIEKGNQMPLKRFSMEGISNILQSGIRQTFGSSGADRQYLNTVIPYEKKSSPPSVEDLQMLTNILFAMKEDNEKVPTLLTDYILKVLCPT
binding result [2]: binds
